Test results as given in patent publication US20250320468A1, “New Microbial Diamine Oxidase Derived from Yarrowia Lipolytica for the Degradation of Biogenic Amines” (UNIVERSITÄT HOHENHEIM, priority 2021, published 2025).
Where “and” joins values, the source holds several entries; their conditions need not be identical. Equal entries are not always repeated.

Tests used:
[1] = Substrate selectivity of DAO-1 (DA-67 assay), histamine; type: biochemical
Description: (§1) The amino acids L-tryptophan, L-lysine, L-histidine, and L-arginine were also tested.

[2] = Substrate selectivity of DAO-1 (DA-67 assay), putrescine; type: biochemical; settings: 100% = 10 mM histamine
Description: as §1

[3] = pH-stability of DAO-1 in buffer systems at 37° C; type: physicochemical
Description: Consequently, DAO-1 was incubated for 5 h at 37° C. and stirred at 400 rpm in the following buffer systems: 20 mM MES (pH 5.5), 20 mM sodium phosphate buffer (pH 6.2, 7.0, 7.2, 7.8, 8.0), 20 mM PIPES (pH 7.0, 7.2, 7.5) and 20 mM Tris-HCl (pH 6.8, 7.5, 8.2). Afterwards, the residual enzyme activity of DAO-1 was determined under standard assay conditions and compared to the DAO-1 activity applied initially.

[4] = Histamine bioconversion with DAO-1 in PIPES buffer with simulated food matrix (RP-HPLC); type: biochemical; settings: for histamine concentration after bioconversion: 0.1 nkat/mL DAO-1, 5 h
Description: An amount of 5 g/L BSA and 25 g/L sucrose were added to the approach to simulate a food matrix. Additionally, catalase was added (30 nkat/mL) to remove the hydrogen peroxide. The experiment was started by the addition of 0.1 nkat/mL DAO-1 activity.

[5] = Substrate selectivity of DAO-1 (DA-67 assay), amino acids; type: biochemical; settings: L-tryptophan, L-lysine, L-histidine, L-arginine at 1, 10 and 50 mM
Description: as §1

[6] = Substrate selectivity of DAO-1 (DA-67 assay), cadaverine; type: biochemical; settings: 100% = 10 mM histamine
Description: as §1

[7] = Stability of DAO-1 in simulated intestinal fluid (SIF) with and without food matrices; type: in vitro ADME
Description: The stability of DAO-1 was tested in a simulated intestinal fluid (SIF) with and without the addition of simulated food matrices. Therefore, pancreatin-containing SIF was prepared as described in the United States Pharmacopeia (USP42). Different food-matrix stock solutions (4× concentrated) were prepared as follows: 200 g/L bovine serum albumin (BSA) and 100 g/L sucrose (=food-matrix 1), 100 g/L BSA, 100 g/L whey protein isolate (WPI) and 200 g/L sucrose (=food-matrix 2) and BSA, WPI, sodium-caseinate each at 66.68 g/L and 200 g/L sucrose (=food-matrix 3). The pH of each stock solution was adjusted to 6.8 with 1 M NaOH. The freshly prepared 2× concentrated SIF, the food-matrix stock solutions as well as DAO-1 (desalted against H2Odd using PD MidiTrap G-25 columns; GE Healthcare, Chicago, USA) were individually incubated for 5 min in a thermoshaker at 37° C. Subsequently, 500 μL of 2× concentrated SIF, 250 μL of DAO-1 and 250 μL of the food-matrix stock solutions were combined and incubated at 37° C., 500 rpm in a thermoshaker. In order to test the stability of DAO-1 without the presence of stabilizing compounds, H2Odd was added instead of the food-matrix stock solution. Immediately after combining the solutions, a sample of 100 μL was taken and used for the DAO-1 activity determination using the DA-67 assay.

[8] = substrate: NCCc1c[nH]cn1; assay: purified protein, by the assay type
[9] = Substrate selectivity of DAO-1 (DA-67 assay), tryptamine; type: biochemical; settings: substrate tryptamine 1 mM; 100% = 10 mM histamine
Description: as §1

[10] = Michaelis-Menten kinetics of DAO-1 in PIPES buffer; type: biochemical; settings: read-out: Km for histamine; PIPES buffer 25 mM pH 7.2, 37° C
Text: Kinetic investigations were done within the initial reaction velocity.

[11] = Substrate selectivity of DAO-1 (DA-67 assay), spermidine; type: biochemical; settings: 100% = 10 mM histamine
Description: as §1

[12] = DAO activity determination, colorimetric DA-67 enzyme assay (specific / total DAO activity); type: biochemical
Description: The DAO activity was determined using the colorimetric DA-67 enzyme assay, as known in the art.

[13] = Substrate selectivity of DAO-1 (DA-67 assay), agmatine; type: biochemical; settings: 100% = 10 mM histamine
Description: as §1

[14] = Temperature and pH profile of DAO-1 (DA-67 assay); type: biochemical
Description: The influence of temperature on the enzyme activity of DAO-1 was tested under standard assay conditions, whereby the incubation temperature was varied between 2° and 47° C. The pH-dependency of the DAO-1 activity was investigated under standard assay conditions at 37° C., whereby different buffer systems (50 mM sodium phosphate buffer, pH 6.2-7.8; 50 mM PIPES, pH 7-7.5; 50 mM Tris-HCl, pH 7.2-8.5) were used. The respective buffer system was calibrated with hydrogen peroxide (0.5 to 10 nmol/mL). Analytically pure histamine was used as a substrate for the temperature and pH profiles.

[15] = Substrate selectivity of DAO-1 (DA-67 assay), tyramine; type: biochemical; settings: 100% = 10 mM histamine
Description: as §1

[16] = other: apparent, histamine 0.5-50 mM, PIPES buffer (25 mM; pH 7.2), 37° C., pH 7.2
[17] = bioreactor cultivation, crude extract

B1: Yarrowia lipolytica PO1f diamine oxidase-1 (DAO-1), wild type, SEQ ID NO: 1 (Yarrowia lipolytica CLIB122) (protein)
chain: MTPHPFDQLSVQEMESVVRVVKSNHSGKSLHLKSIGTEEPPKALMAPFLAAKRAGKNPVPPPRIAHVIYYVLEDKLVNQCWVDVPSAKVVKSEVLKKGIHPPIDPWEANEAFEAAFDHPLVKDAIKKCGVEHLIDNLTIDGWMYGCDSEIDMPRYLQMLVYCRDPKTNHQDSNMYAFPVPFVPVYDVLEKKLVRVDYCATGGDDDDAAVEGVGNYDTRPEGKNCIEHCVTNDYLPELQDKMRTDLKPYNVLQPEGPSYHIDSDGYINWQKWHFKVGFTPREGLVIHDVHYDGRSTFYRLSMSEMAVPYADPRPPLHRKMAFDFGDCGGGKCANELTLGCDCLGTIRYFDGNVCDPEGNVFTRKNVICMHEQDDGIGWKHTNYRTDVVAITRRRILVLQTILTVGNYEYIFAWHFDQSAGIQLEIRATGIVSTQLIDAGKKSKFGTIVSPGVMAASHQHIFNVRMDPAIDGHQNTVVVNDTVALPWDAKNPHGIAFENTKTPIEKSCYLDSDIQKNRYLKICNENKINPISGNPVGYKIGGLATAMLYAQPGSVSRNRAAFATHHYWVTKYKDQELFAGGVWTNQSANEVGGVQDAVARNENVRNDDVVLWHSFGLTHHPRVEDFPVMPCEIMKIHLSPNDFFTGNPSVDVPKSNQTFNRSVEVKDCRSCKI
DAO-1 activity [%] ([1]; substrate histamine 1 mM, 100% = 10 mM histamine): 45.1 ± 0.7% | DAO-1 activity [%] ([1]; substrate histamine 10 mM, reference 100%): 100 ± 1.5% | DAO-1 activity [%] ([1]; substrate histamine 50 mM, 100% = 10 mM histamine): 74.4 ± 1.1% | DAO-1 activity [%] ([2]; substrate putrescine 1 mM): 29.8 ± 0.4% | DAO-1 activity [%] ([2]; substrate putrescine 10 mM): 92.9 ± 1.4% | DAO-1 activity [%] ([2]; substrate putrescine 50 mM): 77.9 ± 1.1% | residual DAO-1 activity ([3]; 37° C, 5 h, pH range from 6.2 to 7.5): more than 60% | residual DAO-1 activity ([3]; 37° C, 24 h): 53.7±1.2% | residual DAO-1 activity ([3]; PIPES buffer (20 mM) pH 7.0, 37° C, 5 h): 89.5±0.8% | residual activity of DAO-1 after bioconversion ([4]; after 5 h bioconversion at 37° C, determined by RP-HPLC): 57.4±1.3% | histamine concentration at start of stagnation ([4]; around 4 h): 43.5±0.76 mg/L and 0.39±0.01 mM | histamine concentration after bioconversion ([4]; initial 1.35 mM, 37° C): 0.34 ± 0.01 mM | histamine concentration after bioconversion ([4]; initial 150 mg/L, 37° C): 37.4±0.65 mg/L and 37.4±+0.65 mg/L | remaining histamine relative to initial (100%) ([4]; initial 150 mg/L, 5 hours, 37° C): 25±1.7% | DAO-1 activity towards amino acids [5]: did not show any activity | DAO-1 activity [%] ([6]; substrate cadaverine 1 mM): 29.6 ± 0.4% | DAO-1 activity [%] ([6]; substrate cadaverine 10 mM): 87.3 ± 1.3% | DAO-1 activity [%] ([6]; substrate cadaverine 50 mM): 64.5 ± 1.0% | half-life period ([7]; food-matrix SIF 1 (50 g/L BSA, 25 g/L sucrose), 37° C): around 15 min | half-life period ([7]; food-matrix SIF 2 (25 g/L BSA, 25 g/L WPI, 50 g/L sucrose), 37° C): around 30 min | initially applied DAO-1 activity available over 90 min ([7]; food-matrix SIF 3, 37° C): around 43% | residual DAO-1 activity ([7]; food-matrix SIF 3, 90 min, 37° C): 8±0.1% | half-life period ([7]; pure SIF (pancreatin), 37° C): less than 5 min | Km [8, 16]: 2300 ± 200 µM | Vmax [8, 16]: 9.09±0.37 nkat/mg | Km ([8]; other: hydrolyzed food-matrix SIF 3 (pancreatin, 90 min at 37° C.), pH 6.8, histamine 1.56-50 mM, pH 6.8): 4200 ± 500 µM | DAO-1 activity [%] [9]: 166.1 ± 0.8% | Km [10]: 2300 µM | DAO-1 activity [%] ([11]; substrate spermidine 1 mM): 2.1 ± 1.6% | DAO-1 activity [%] ([11]; substrate spermidine 10 mM): 3.8 ± 0.9% | DAO-1 activity [%] ([11]; substrate spermidine 50 mM): 2.1 ± 1.3% | increase of specific DAO-1 activity compared to the recent work ([12]; 5 L scale purified preparation): 3 fold | specific DAO-1 activity ([12]; 5 L scale, stirred media mill, ammonium sulfate precipitation and HIC): 15 μkat/gProtein | specific DAO-1 activity of crude extract relative to partially purified porcine DAO ([12]; 1301 vs 81 nkat/gProtein): around 16 times | specific DAO-1 activity ([12]; DAO-1 produced in Komagataella phaffii, fed-batch bioreactor): 2500 nkat/gProtein | specific DAO-1 activity relative to specific DAO activity obtained from porcine kidney ([12]; K. phaffii DAO-1 after assumed 7.2-fold purification): more than 200 fold | specific DAO-1 activity ([12]; after (NH4)2SO4 precipitation and hydrophobic interaction chromatography): 4738±31 nkat/gProtein | specific DAO-1 activity ([12]; after cell disruption (high-pressure homogenizer) of 10 g wet yeast biomass, before purification): 660±28 nkat/gProtein | increase in specific DAO activity compared with extracted and purified DAO from porcine kidney ([12]; after chromatographic purification): ~60 fold | increase in specific DAO activity compared with DAO extraction from porcine kidney [12, 17]: 145 fold | increase in specific DAO activity compared with native DAO-1 production in Y. lipolytica PO1f [12, 17]: 93 fold | specific DAO-1 activity ([12]; crude extract, bioreactor cultivation of Y. lipolytica PO1f_axp_dao-1, final (96 h)): 1301±54.2 nkat/gProtein | DAO-1 activity [%] ([13]; substrate agmatine 1 mM): 31 ± 1.1% | DAO-1 activity [%] ([13]; substrate agmatine 10 mM): 30.6 ± 2.7% | DAO-1 activity [%] ([13]; substrate agmatine 50 mM): 7.4 ± 2.3% | relative DAO-1 activity ([14]; 42° C, relative to maximum at 40° C): 76±1% | relative DAO-1 activity ([14]; 45° C, relative to maximum at 40° C): 31.7±1% | DAO-1 activity compared to the maximal activity in Tris-HCl at pH 7.2 ([14]; PIPES buffer): 92.2±3.9% | temperature of maximal DAO-1 activity ([14]; PIPES buffer 25 mM pH 7.2, histamine substrate): 40 °C | pH of maximal DAO activity ([14]; Tris-HCl buffer (50 mM), 37° C, histamine substrate): 7.2 | Maximal DAO-1 activity (100%) ([14]; pH/buffer profile at 37° C (FIG. 8)): 1.84±0.03 nkat/mL | Maximal DAO-1 activity (100%) ([14]; temperature profile, PIPES 25 mM pH 7.2 (FIG. 7)): 1.88±0.01 nkat/mL | relative DAO-1 activity ([14]; temperature range between 3° and 42° C): greater than 50% | DAO-1 activity [%] ([15]; substrate tyramine 1 mM): 303.9 ± 4.4% | DAO-1 activity [%] ([15]; substrate tyramine 10 mM): 246.8 ± 3.6% | DAO-1 activity [%] ([15]; substrate tyramine 50 mM): 66.4 ± 1.0%
